From patent US20240059789A1 (Janssen / Centocor, published 2024)

T1: Avi-6xHis-GS-cyno PSMA ECD (PSMW1) (Macaca fascicularis, UniProt Q04609 48-750 (human entry))
T1 construct: also called PSMW1.009; cy PSMA
T1 chain: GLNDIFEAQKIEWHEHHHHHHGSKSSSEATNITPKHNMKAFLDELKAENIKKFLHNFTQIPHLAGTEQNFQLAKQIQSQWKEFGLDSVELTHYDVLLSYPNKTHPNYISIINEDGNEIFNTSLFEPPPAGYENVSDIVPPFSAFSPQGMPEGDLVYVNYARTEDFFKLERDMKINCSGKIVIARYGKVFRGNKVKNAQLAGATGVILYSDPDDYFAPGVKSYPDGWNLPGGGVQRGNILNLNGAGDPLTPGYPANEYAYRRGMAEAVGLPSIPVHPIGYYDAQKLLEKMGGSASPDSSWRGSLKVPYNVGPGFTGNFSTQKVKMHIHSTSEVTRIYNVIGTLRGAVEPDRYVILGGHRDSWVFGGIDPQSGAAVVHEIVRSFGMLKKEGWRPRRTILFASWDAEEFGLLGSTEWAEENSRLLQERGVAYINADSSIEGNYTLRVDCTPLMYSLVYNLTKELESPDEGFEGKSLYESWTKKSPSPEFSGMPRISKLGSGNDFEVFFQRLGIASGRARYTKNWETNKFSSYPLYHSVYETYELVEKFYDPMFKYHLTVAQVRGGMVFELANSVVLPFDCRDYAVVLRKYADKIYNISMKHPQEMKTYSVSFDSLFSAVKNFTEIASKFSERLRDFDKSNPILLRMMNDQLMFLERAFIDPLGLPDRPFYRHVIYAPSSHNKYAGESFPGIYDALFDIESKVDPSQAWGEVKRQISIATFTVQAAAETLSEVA


Columns and labels:
[1] = molecular target: T2, Human PSMA on prostate cancer cell lines (C4-2B, 22RV1) (human, UniProt Q04609 1-750); assay: flow cytometry on 22RV1 cells
T2 construct: Endogenous PSMA of the human cell lines; also called PSMA+ cells; PSMA-expressing cell lines
T2 sequence (Q04609 whole entry): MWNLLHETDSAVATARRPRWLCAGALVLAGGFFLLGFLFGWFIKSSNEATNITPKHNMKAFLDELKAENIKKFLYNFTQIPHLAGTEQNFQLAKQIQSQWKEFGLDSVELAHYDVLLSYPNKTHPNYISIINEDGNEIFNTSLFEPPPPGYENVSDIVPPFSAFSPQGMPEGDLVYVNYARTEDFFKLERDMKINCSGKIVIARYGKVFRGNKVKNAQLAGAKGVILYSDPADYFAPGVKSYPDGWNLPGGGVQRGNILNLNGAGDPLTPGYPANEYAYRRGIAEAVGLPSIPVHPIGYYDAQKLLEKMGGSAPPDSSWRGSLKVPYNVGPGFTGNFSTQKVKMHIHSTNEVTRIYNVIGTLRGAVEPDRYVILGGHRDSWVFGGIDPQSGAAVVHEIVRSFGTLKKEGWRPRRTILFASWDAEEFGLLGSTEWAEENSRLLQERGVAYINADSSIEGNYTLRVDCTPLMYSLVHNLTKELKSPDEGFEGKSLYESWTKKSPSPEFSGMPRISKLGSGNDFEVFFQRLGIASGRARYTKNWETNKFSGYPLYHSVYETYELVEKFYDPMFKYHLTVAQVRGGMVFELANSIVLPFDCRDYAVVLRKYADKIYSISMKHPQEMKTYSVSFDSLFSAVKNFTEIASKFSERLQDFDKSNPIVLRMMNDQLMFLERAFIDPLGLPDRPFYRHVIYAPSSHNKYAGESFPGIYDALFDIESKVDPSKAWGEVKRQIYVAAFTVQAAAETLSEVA
Protocol: (§1) Selected anti-PSMA antibodies were evaluated for binding to commercial prostate cancer cell lines. C4-2B cells were originally developed at MD Anderson and are derived from LNCaP FGC grown in vivo and metastasize to bone marrow (Thalmann, et al 1994, Cancer Research 54, 2577-81). 22Rv1 cells are a human prostate carcinoma epithelial cell line derived from a xenograft that was serially propagated in mice after castration-induced regression and relapse of the parental, androgen-dependent CWR22 xenograft. 22RV1 and C4-2B cells were plated at 50,000 cells per well in 50 μl of assay medium (RPMI, 10% HI FBS) in V bottom plates. Serial dilutions of antibodies were prepared in assay medium with 50 μl of antibody dilutions added to the plates containing cells. The plates were incubated for 60 min at 37° C. at which time 100 μl of staining buffer (Becton Dickinson Cat #554657) was added to all wells of each plate. The plates were centrifuged at 300×G for 5 minutes and the medium was removed from the wells. 200 μl of staining buffer was added to all wells of each plate. The plates were centrifuged at 300×G for 5 minutes and the medium was removed from the wells. 50 μl of 2 μg/ml AlexaFluor647-labeled goat anti-human Fc was added to all wells of the plates and the plates were incubated for 30 minutes at 4° C. 150 μl of staining buffer was added to all wells of each plate. The plates were centrifuged at 300×G for 5 minutes and the medium was removed from the wells.

[2] = molecular target: T2, Human PSMA on prostate cancer cell …; assay: flow cytometry on C4-2B cells
Protocol: as §1

[3] = molecular target: T3, Human PSMA ECD (Lys44-Ala750), N-6xHis (PSMW39) (human, UniProt Q04609 44-750); assay: SPR Biacore 8K, mAb captured by anti-Fc, antigen in solution
T3 construct: also called PSMW39.002; hu PSMA
T3 sequence (Q04609 other isoform, or with tags, fused parts or gaps): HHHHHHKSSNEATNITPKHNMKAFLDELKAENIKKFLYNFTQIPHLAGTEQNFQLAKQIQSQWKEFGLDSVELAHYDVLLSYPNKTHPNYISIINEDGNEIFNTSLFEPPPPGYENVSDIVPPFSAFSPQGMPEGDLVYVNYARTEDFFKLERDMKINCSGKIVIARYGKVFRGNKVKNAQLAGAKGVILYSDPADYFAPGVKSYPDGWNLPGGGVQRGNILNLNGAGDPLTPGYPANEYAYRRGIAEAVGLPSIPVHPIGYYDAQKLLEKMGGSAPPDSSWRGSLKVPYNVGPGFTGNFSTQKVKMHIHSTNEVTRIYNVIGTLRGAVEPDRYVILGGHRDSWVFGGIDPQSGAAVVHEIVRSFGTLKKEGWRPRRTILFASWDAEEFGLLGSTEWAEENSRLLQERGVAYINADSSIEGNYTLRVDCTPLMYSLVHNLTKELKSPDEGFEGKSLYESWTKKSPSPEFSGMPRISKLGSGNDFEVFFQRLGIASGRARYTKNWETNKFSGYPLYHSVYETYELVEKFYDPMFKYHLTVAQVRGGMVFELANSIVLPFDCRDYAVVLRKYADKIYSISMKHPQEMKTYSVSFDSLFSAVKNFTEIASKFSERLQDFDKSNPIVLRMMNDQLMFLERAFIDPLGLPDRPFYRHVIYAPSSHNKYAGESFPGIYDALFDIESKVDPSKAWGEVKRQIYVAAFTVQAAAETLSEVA
Protocol: (§2) The association and dissociation were monitored for 3 and 15 minutes, respectively, using a flow rate of 50 μL/min. Raw binding data was referenced by subtracting the analyte binding signals from blanks and analyzed using a 1:1 Langmuir binding model using the Biacore Insight evaluation software to obtain the kinetics, which were used to calculate the binding affinity. The anti-PSMA were captured using an anti-human Fc antibody and the antigens were injected in solution.

[4] = molecular target: T1, Avi-6xHis-GS-cyno PSMA ECD (PSMW1); assay: as above
Protocol: as §2

[5] = molecular target: Avi-6xHis-GS-mouse PSMA (45-752) (PSMW29) (Mus musculus, UniProt O35409 45-752); assay: as above
Protocol: as §2

[6] = molecular target: T2, Human PSMA on prostate cancer cell …; assay: cell-based or functional assay
[7] = molecular target: Human CD3 on T cells / Jurkat cells (human, UniProt P07766 23-207); assay: cell-based or functional assay
Chain of Human CD3 on T cells / Jurkat cells (P07766 23-207 limits assumed): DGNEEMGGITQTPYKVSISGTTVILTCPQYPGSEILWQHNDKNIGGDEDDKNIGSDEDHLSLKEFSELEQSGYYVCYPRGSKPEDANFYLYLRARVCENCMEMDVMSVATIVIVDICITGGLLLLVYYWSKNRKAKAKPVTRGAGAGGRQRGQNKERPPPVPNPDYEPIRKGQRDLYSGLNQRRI

Row | EC50 [1] | EC50 [2] | Kd [3] | Kd [4] | Kd [5] | T cell activation EC50 [M] (CD25+ T cells, C4-2B co-culture, 72 h) [7] | Binder | Tumor killing EC50 [M] (C4-2B + PAN-T cells, 72 h, flow cytometry) [6]
1 | 1.71 nM | 5.09 nM | 0.704 nM | 2.83 nM |  |  | PSMB895 (antibody, human IgG1, lambda, L234A L235A, V domains shown) VH: EVQLVESGGGLVQPGGSLRLSCAASGFTFSSYAMSWVRQAPGKGLEWVSAISGGIGSTYYADSVKGRFTISRDNSKNTLWLQMNSLRAEDTAVYYCAKDGVGATPYYFDYWGQGTLVTVSS VL: QSVLTQPPSVSAAPGQKVTISCSGSSSNIGNNYVSWYQQLPGTAPKLLIYDNNKRPSGIPDRFSGSKSGTSATLGITGLQTGDEADYYCGTWDSSLSAYVFGTGTKVTVLG | 
2 | 2.26 nM | 4.76 nM | 1.28 nM | 3.93 nM |  |  | PSMB897 (antibody, human IgG1, lambda, L234A L235A, V domains shown) VH: EVQLVESGGGLVQPGGSLRLSCAASGFTFSSYAMSWVRQAPGKGLEWVSAISGGSGSTYYADSVKGRFTISRDNSKNTLYLQMNSLRAEDSAVYYCAKDGVGATPYYFDYWGQGTLVTVSS VL: QSVLTQPPSVSAAPGQKVTISCSGSSSNIGNNYVSWYQQLPGTAPKLLIYDNNKRPSGIPDRFSGSKSGTSATLGITGLQTGDEADYYCGTWDSSLSAYVFGTGTKVTVLG | 
3 | 1.24 nM | 25.8 nM | ≤ 0.0876 nM | 0.658 nM | 1.36 nM |  | PSMB896 (antibody, human IgG1, lambda, L234A L235A, V domains shown) VH: EVQLVESGGGLVQPGGSLRLSCAASGFTFSSYAMSWVRQAPGKGLEWVSAISGGIGSTYYADSVKGRFTISRDNSKNTLWLQMNSLRAEDTAVYYCAKDGVGATPYYFDYWGQGTLVTVSS VL: QSVLTQPPSVSAAPGQKVTISCSGSSSNIGINYVSWYQQLPGTAPKLLIYDNNKRPSGIPDRFSGSKSGTSATLGITGLQTGDEADYYCGTWDSSLSAVVFGGGTKLTVLG | 
4 | 1.02 nM | 5.58 nM | 0.132 nM | 1.47 nM |  |  | PSMB899 (antibody, human IgG1, lambda, L234A L235A, V domains shown) VH: EVQLVESGGGLVQPGGSLRLSCTASGFIFSSYAMSWVRQAPGKGLEWVSAISGGYGAPYYADTVKGRFTISRDNSKNTLYLQMNSLRAEDTAVYYCAKDGVGATPYYFDDWGQGILVTVSS VL: QSVLTQPPSVSAAPGQKVTISCSGSSSNIGNNYVSWYQQLPGTAPKLLIFDNNKRPSGIPDRFSGSKSGTSATLGITGLQTGDEADYYCGTWDSSLSAYVFGTGTKVTVLG | 
5 | 2.07 nM | 6.53 nM | 0.333 nM | 1.19 nM |  |  | PSMB898 (antibody, human IgG1, lambda, L234A L235A, V domains shown) VH: EVQLVESGGGLVQPGGSLRLSCAASGFTFSSYAMSWVRQAPGKGLEWVSAISGGSGSTYYADSVKGRFTISRDNSKNTLYLQMNSLRAEDSAVYYCAKDGVGATPYYFDYWGQGTLVTVSS VL: QSVLTQPPSVSAAPGQKVTISCSGSSSNIGINYVSWYQQLPGTAPKLLIYDNNKRPSGIPDRFSGSKSGTSATLGITGLQTGDEADYYCGTWDSSLSAVVFGGGTKLTVLG | 
6 | 0.554 nM | 1.99 nM | ≤ 0.253 nM | ≤ 0.21 nM |  |  | PSMB891 (antibody, human IgG1, lambda, L234A L235A, V domains shown) VH: EVQLVESGGGVVQPGRSLRLSCAASGFTFITYGMHWVRQAPGKGLEWVAVVSFDESNKYYADSVKGRFTISRDNSKNTLYLQMNSLRAEDTAVYYCARALRDGNNWDYFNGMDVWGQGTTVTVSS VL: not shown | 
7 | 1.71 nM | 0.941 nM |  |  |  |  | PSMB890 (antibody, human IgG1, lambda, L234A L235A, V domains shown) VH: EVQLVESGGGLVKPGGSLRLSCAASGFTFSRYNMNWVRQAPGKGLEWVSSINSNSRYIYYADSVKGRFTISRDSAKNSLYLQMNSLRAEDTAVYYCAKTMGDYYYYYGMDVWGQGTTVTVSS VL: SSELTQPPSVSGAPGQRVTISCAGSLSNIGAGYDVHWYQQLPGTAPKLLIYGNINRLSGVPERFSGSKSGTSASLAITGLQAEDGADYYCQSYDSSLSSYVFGTGTKVTVLG | 
8 |  |  |  |  |  | 1.55e-10 M | PS3B913 (bispecific antibody, human IgG1, lambda, L234A L235A) heavy 1: QVQLQQSGPRLVRPSQTLSLTCAISGDSVFNNNAAWSWIRQSPSRGLEWLGRTYYRSKWLYDYAVSVKSRITVNPDTSRNQFTLQLNSVTPEDTALYYCARGYSSSFDYWGQGTLVTVSSASTKGPSVFPLAPSSKSTSGGTAALGCLVKDYFPEPVTVSWNSGALTSGVHTFPAVLQSSGLYSLSSVVTVPSSSLGTQTYICNVNHKPSNTKVDKKVEPKSCDKTHTCPPCPAPEAAGGPSVFLFPPKPKDTLMISRTPEVTCVVVSVSHEDPEVKFNWYVDGVEVHNAKTKPREEQYNSTYRVVSVLTVLHQDWLNGKEYKCKVSNKALPAPIEKTISKAKGQPREPQVYTLPPSREEMTKNQVSLTCLVKGFYPSDIAVEWESNGQPENNYKTTPPVLDSDGSFLLYSKLTVDKSRWQQGNVFSCSVMHEALHNHYTQKSLSLSPG light 1: QSALTQPASVSGSPGQSITISCTGTSSNIGTYKFVSWYQQHPDKAPKVLLYEVSKRPSGVSSRFSGSKSGNTASLTISGLQAEDQADYHCVSYAGSGTLLFGGGTKLTVLGQPKAAPSVTLFPPSSEELQANKATLVCLISDFYPGAVTVAWKADSSPVKAGVETTTPSKQSNNKYAASSYLSLTPEQWKSHRSYSCQVTHEGSTVEKTVAPTECS heavy 2: not shown light 2: not shown | 3.11e-10 M
9 |  |  |  |  |  | 1e-08 M | PS3B915 (bispecific antibody, human IgG1, lambda, L234A L235A) heavy 1: QVQLQQSGPRLVRPSQTLSLTCAISGDSVFNNNAAWSWIRQSPSRGLEWLGRTYYRSKWLYDYAVSVKSRITVNPDTSRNQFTLQLNSVTPEDTALYYCARGYSSSFDYWGQGTLVTVSSASTKGPSVFPLAPSSKSTSGGTAALGCLVKDYFPEPVTVSWNSGALTSGVHTFPAVLQSSGLYSLSSVVTVPSSSLGTQTYICNVNHKPSNTKVDKKVEPKSCDKTHTCPPCPAPEAAGGPSVFLFPPKPKDTLMISRTPEVTCVVVSVSHEDPEVKFNWYVDGVEVHNAKTKPREEQYNSTYRVVSVLTVLHQDWLNGKEYKCKVSNKALPAPIEKTISKAKGQPREPQVYTLPPSREEMTKNQVSLTCLVKGFYPSDIAVEWESNGQPENNYKTTPPVLDSDGSFLLYSKLTVDKSRWQQGNVFSCSVMHEALHNHYTQKSLSLSPG light 1: QSALTQPASVSGSPGQSITISCTGTSSNIGTYKFVSWYQQHPDKAPKVLLYEVSKRPSGVSSRFSGSKSGNTASLTISGLQAEDQADYHCVSYAGSGTLLFGGGTKLTVLGQPKAAPSVTLFPPSSEELQANKATLVCLISDFYPGAVTVAWKADSSPVKAGVETTTPSKQSNNKYAASSYLSLTPEQWKSHRSYSCQVTHEGSTVEKTVAPTECS heavy 2: not shown light 2: not shown | 1e-08 M
